Experimental findings from the supplement of paper PMC9170038 are described below.

The series deals with MS2 coat protein. Description: apparent KD of MS2 coat protein; designed switch direction (-1 OFF switch, 1 ON switch): -1; higher = weaker reporter binding. The method in brief: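 An oligonucleotide input, 200 uM small-molecule ligand, or no input was present during titration of SNAP-549-labelled MS2 coat protein, which was doubled from 0.7 or 1.5 nM to 3 µM. Designed RNA switches had been transcribed on Illumina chips by stalled E. coli RNA polymerase. Apparent KD per design is the median over clusters of curves fitted to normalised cluster fluorescence.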

Setting [1] is: Eterna round: R95, input ligand: microRNA oligo, concentration not stated.
The mark [2] stands for this setting: input ligand: microRNA oligo, concentration not stated.
The mark [3] stands for this setting: Eterna round: R95, input ligand: FMN 200 uM.
Setting [4] is: Eterna round: R95, input ligand: none.

For “GUGUGCAGACGGAGAUCCUACAUGAGGAUCACCCAUGUCUCACUAGCUUUUUGCUCGUCUUAUCCUCCUCUGUUCUC [Elimod 26 - Jieux - Sensor, turn-off variant 1] (Eterna round: R97, puzzle: Sensor, turn-off variant 1)”, the “apparent KD of MS2 coat protein” value was found to be 295 nM (input ligand: FMN 200 uM) and 497 nM (input ligand: none). In the case of “GUGUGCAGAGGAUAUACAGAGGAAAAGAAGAAAGAAGAGGGACAUGAGGAUCACCCAUGUAGAAGGCUGAGUGU [Excluse me!! 24 - Jieux - Exclusion 2] (puzzle: Exclusion 2)”, the “apparent KD of MS2 coat protein” value under setting [1] amounted to 30.4 nM. In the case of “GUGUGGCCUGUAGGAUAUGGUUCCGUUUCGGUUCCAGAAGGACACGAGGAUACAUGAGGAUCACCCAUGUGCUCGUCACUGUGC [salish99_ExNG1_r04_404] (Eterna round: R96, puzzle: Exclusion NG 1)”, the “apparent KD of MS2 coat protein” value was determined as 13.2 nM (input ligand: FMN 200 uM), 11.5 nM under setting [2] and 18.2 nM (input ligand: none).

As for “GUGUGUUGAUUAGGAUAUGCUCUAAGCAAUCGGGCAGAAGGAGUUAGACAUGAGGAUCACCCAUGUAAAUAUCGGAUCCCAACG [Eternabot solution 17] (Eterna round: R96, puzzle: Exclusion NG 1)”, the “apparent KD of MS2 coat protein” value was determined as 18.6 nM (input ligand: FMN 200 uM), 16.2 nM under setting [2] and 19.3 nM (input ligand: none). “GUUAAACAUGAGGAUCACCCAUGUAAGGAUAUGCUGCGGUCGCGAUGAAGUGACUGCAGCAGAAGGUACAAAUG [Mat - Mod of JL D59] (puzzle: Exclusion 1)”: the “apparent KD of MS2 coat protein” value by setting is: under setting [3], 89.8 nM; under setting [1], 92 nM; under setting [4], 102 nM. As to “GUUAAACAUGAGGAUCACCCAUGUAAGGAUAUGCUGCGGUCGCGAUGAAGUGACUGCAGCAGAAGGUACAAUUG [Mat - Mod of JL D52] (puzzle: Exclusion 1)”, the “apparent KD of MS2 coat protein” value under setting [1] is 88.8 nM.

Regarding “GUUAAACAUGAGGAUCACCCAUGUAAGGAUAUGCUGCGGUCGCGCUGACGUGACUGCAGCAGAAGGUACAAUUG [Mat - Mod of JL D51] (puzzle: Exclusion 1)”, the “apparent KD of MS2 coat protein” value under setting [1] amounted to 64.8 nM. As for “GUUAACGAAGAGGAUAUAUGAUAUCAAAGCUUCAUAGAAGGCUUCACAUGAGGAUCACCCAUGUGAUCUUCAAU [jl-ex6-4.08 ViennaUCT mod] (Eterna round: R97, puzzle: Exclusion 6)”, the “apparent KD of MS2 coat protein” value runs as follows: (input ligand: FMN 200 uM) 232 nM; (input ligand: none) 42.6 nM. For “GUUAACGAAGAGGAUAUAUGAUAUCAAAGCUUCAUAGAAGGCUUCACAUGAGGAUCACCCAUGUGAUCUUCUUU [jl-ex6-4.09 ViennaUCT mod] (Eterna round: R97, puzzle: Exclusion 6)” the same measures were 44.2 nM and 15.1 nM. Take “GUUAAGGUAGGAUAUACGAUAAUAUAGGGUAGAUAUAUAACACAUGAGGAUCACCCAUGUAGAAGGACCAAGUG [Mat - Exclusion 2 - Mod of my Tesla design - D60] (puzzle: Exclusion 2)”: the “apparent KD of MS2 coat protein” value under setting [1] turned out to be 43.4 nM. The same measure, in the same setting: the same measure for “GUUAAGUGAGGAUAUGGUGAGUAGUGCCUGAGCGCUGCUCACCAGAAGGCACAUGAGGAUCACCCAUGUAUAGC [JL-ex4-2.06 denovo] (puzzle: Exclusion 4)”: 15.2 nM. As to “GUUAGACAUGAGGAUCACCCAUGUGAGGAUAUGAUGCGAAUAAUGAAUGAAGAAAGCAUCAGAAGGCACAUAUG [Mat - Mod of Hyphema D29] (puzzle: Exclusion 1)”, the “apparent KD of MS2 coat protein” value runs as follows: under setting [3], 375 nM; under setting [1], 296 nM; under setting [4], 221 nM. In the case of “GUUAGUAUCUAGGAUAUCUAGUACAUAGUAUCUAGAGAAGGAGAUACAUGAGGAUCACCCAUGUUCUGUGUUCU [Exclusion 6 - 1:c] (puzzle: Exclusion 6)”, the “apparent KD of MS2 coat protein” value under setting [1] is 21.9 nM. With “GUUAGUUAAGGAUAUACAGGGAGCUGCGGCGUCUCGCCGCAACAUGAGGAUCACCCAUGUAGAAGGUAGCCGUU [JL ViennaUCT Enbibi mod 8] (puzzle: Exclusion 2)”, the “apparent KD of MS2 coat protein” value under setting [1] worked out at 53.2 nM. The same measure, in the same setting: the same measure for “GUUAGUUAAGGAUAUACUGGGAGCUGCGGCGUCUCGCCGCAACAUGAGGAUCACCCAUGUAGAAGGUGGCCAUU [JL ViennaUCT Enbibi mod 4] (puzzle: Exclusion 2)”: 640 nM. For the sequence “GUUAUCGCAGGAUAUUAGUACUUGUACAUGAGGAUCACCCAUGUUUAUUGGGACUAAGAAUAAGAAGGGCGAUGAA [JR_Ex5_Sub004] (Eterna round: R97, puzzle: Exclusion 5)”, the “apparent KD of MS2 coat protein” value was 21 nM (input ligand: FMN 200 uM) and 17.8 nM (input ligand: none). The like results for “GUUCAACAUGAGGAUCACCCAUGUCAGGAUAUGCGAAUUUCAUCAAAAGAUGAAAUUUGCAGAAGGGACUGAAC [Omei Ex1 A30] (Eterna round: R97, puzzle: Exclusion 1)” were, in that order, 30.5 nM and 27.2 nM.

On to “GUUCUGACAGGAUAUACAUGAGGAUCACCCAUGUGCCCUUAGAGAUGCAAAGCAUCUCGUAGAAGGGUCUGAAC [Omei Ex3 Model Bachelor's Dilema v28] (Eterna round: R97, puzzle: Exclusion 3)”, for which the “apparent KD of MS2 coat protein” value is, setting by setting: (input ligand: FMN 200 uM) 38.5 nM; (input ligand: none) 31.6 nM. For “GUUGUACAUGAGGAUCACCCAUGUCAGGAUAUCCACCUCAGAAAGUAUACAGGAUUGUGGAGAAGGGACAUUAA [EX1 C.18] (Eterna round: R97, puzzle: Exclusion 1)” the same measures were 56 nM and 48.5 nM.

In the case of “GUUGUUACUGAGGAUAUUAUUUUAUUCGAUUGAUAAGAAGGCAGUACAUGAGGAUCACCCAUGUGGGUAGUUAG [Polaris21] (Eterna round: R97, puzzle: Exclusion 6)”, the “apparent KD of MS2 coat protein” value is, setting by setting: (input ligand: FMN 200 uM) 270 nM; (input ligand: none) 338 nM. Consider “GUUGUUUAUGUAGGAUAUGCCAGGCGAGCCUAAGCAGAAGGACAUGAGGAUCACCCAUGUAUUGCGGUCUGCGUUCAGAUCGCU [salish99_ExNG1_r4_017] (Eterna round: R96, puzzle: Exclusion NG 1)”, for which the “apparent KD of MS2 coat protein” value (input ligand: FMN 200 uM) amounted to 63.5 nM, the “apparent KD of MS2 coat protein” value under setting [2] worked out at 18.3 nM and the “apparent KD of MS2 coat protein” value (input ligand: none) stood at 23.7 nM. For “GUUGUUUAUGUAGGAUAUGCCUGGCGUGCCUUUGCAGAAGGACAUGAGGAUCACCCAUGUAACAUGAGGCUCACCCAUGUCGCU [salish99_ExNG1_r04_108] (Eterna round: R96, puzzle: Exclusion NG 1)” the same measures were 397 nM, 159 nM and 296 nM. As to “GUUUAAUUAGGAUAUGCAAGCGGUGUUAGAAAAGUAUCCAAACAUGAGGAUCACCCAUGUAGAAGGAGUUGUUG [Eternabot (L2) Solution 59] (Eterna round: R97, puzzle: Exclusion 2)”, the “apparent KD of MS2 coat protein” value reads like this: (input ligand: FMN 200 uM) 28.5 nM; (input ligand: none) 30.2 nM. The like results for “GUUUACAAGCUAAGAUCCUACAUGAGGAUCACCCAUGUGGUCCGGUGACGUGAGUCACCGGACUUAGCUCGUCUUGG [salish99_S_TOV1_R5_090] (Eterna round: R97, puzzle: Sensor, turn-off variant 1)” were, in that order, 66 nM and 66.7 nM.
